Bridge positions count the residues as written; N and C are the ends. Square brackets hold non-standard residues; d marks the D form. Nal = 1-naphthylalanine or 2-naphthylalanine; Trp(1-Me) = Cn1cc(C[C@H](N)C(=O)O)c2ccccc21; Aal = not defined here
Each binder was assayed against human complement protein C3 (human, UniProt P01024 23-1663) (assay: cell-based or functional assay).
Sequence of human complement protein C3 (P01024 23-1663 limits assumed): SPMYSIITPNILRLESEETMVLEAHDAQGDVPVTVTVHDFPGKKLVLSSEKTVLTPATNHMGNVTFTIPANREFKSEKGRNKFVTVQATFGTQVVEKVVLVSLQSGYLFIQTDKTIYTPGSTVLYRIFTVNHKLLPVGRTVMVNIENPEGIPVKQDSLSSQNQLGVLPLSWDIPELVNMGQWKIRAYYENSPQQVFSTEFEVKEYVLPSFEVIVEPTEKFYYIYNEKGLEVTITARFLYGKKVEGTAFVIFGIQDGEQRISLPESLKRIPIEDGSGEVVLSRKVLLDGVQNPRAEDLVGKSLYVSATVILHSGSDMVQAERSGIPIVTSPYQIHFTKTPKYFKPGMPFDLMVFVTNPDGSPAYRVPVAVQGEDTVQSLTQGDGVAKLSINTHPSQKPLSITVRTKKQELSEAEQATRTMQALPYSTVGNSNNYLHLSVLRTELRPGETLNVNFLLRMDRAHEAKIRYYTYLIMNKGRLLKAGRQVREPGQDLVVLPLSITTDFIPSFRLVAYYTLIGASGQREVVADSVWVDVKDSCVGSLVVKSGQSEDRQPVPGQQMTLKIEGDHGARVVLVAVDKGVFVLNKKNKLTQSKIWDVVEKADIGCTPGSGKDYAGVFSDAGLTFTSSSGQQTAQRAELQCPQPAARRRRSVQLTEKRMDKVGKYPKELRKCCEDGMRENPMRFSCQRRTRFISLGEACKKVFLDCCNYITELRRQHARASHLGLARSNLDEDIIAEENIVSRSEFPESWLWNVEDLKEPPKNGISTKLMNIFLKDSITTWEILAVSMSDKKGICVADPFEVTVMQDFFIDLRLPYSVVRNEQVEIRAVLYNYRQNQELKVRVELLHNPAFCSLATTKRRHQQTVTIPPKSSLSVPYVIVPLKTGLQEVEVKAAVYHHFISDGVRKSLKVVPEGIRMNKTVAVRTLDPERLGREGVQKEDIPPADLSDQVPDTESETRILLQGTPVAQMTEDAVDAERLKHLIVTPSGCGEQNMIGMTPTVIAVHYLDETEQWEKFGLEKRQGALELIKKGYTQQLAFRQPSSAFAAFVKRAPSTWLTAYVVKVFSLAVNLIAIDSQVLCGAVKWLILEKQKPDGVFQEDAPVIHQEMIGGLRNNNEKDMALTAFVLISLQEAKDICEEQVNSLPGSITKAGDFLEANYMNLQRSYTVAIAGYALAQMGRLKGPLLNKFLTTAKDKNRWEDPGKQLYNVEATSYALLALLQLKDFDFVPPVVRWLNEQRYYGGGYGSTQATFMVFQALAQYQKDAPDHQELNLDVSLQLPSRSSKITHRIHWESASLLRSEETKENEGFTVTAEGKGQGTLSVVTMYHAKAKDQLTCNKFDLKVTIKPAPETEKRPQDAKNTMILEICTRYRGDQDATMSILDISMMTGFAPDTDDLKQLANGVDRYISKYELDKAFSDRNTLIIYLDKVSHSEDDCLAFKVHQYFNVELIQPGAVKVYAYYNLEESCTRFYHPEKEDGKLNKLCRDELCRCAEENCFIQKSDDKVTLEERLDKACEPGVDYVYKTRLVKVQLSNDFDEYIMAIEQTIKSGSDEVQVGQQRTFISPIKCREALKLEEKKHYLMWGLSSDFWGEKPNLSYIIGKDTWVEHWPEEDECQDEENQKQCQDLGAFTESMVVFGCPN
Ac-RSICVWQDWG[Nal]HRCT-NH2 (disulfide 4-14; not fully specified; printed as Ac-RS-ICVWQDWG{Nal}HRCT-NH2) [Peptide 4.4, Ac-RS-ICVWQDWG{Nal}HRCT-NH2] was tested, and the “C3b ELISA IC50” value was 3100 nM, the “C5b-9 ELISA IC50” value was 2000 nM and the “Lysis IC50” value was 1800 nM. For Ac-NNLCV[Nal]QDWG[Nal]HRCT-NH2 (disulfide 4-14; not fully specified; printed as Ac-NNLCV{Nal}QDWG{Nal}HRCT-NH2) [Peptide 4.6, Ac-NN-LCV{Nal}QDWG{Nal}HRCT-NH2], the “C3b ELISA IC50” value was 3900 nM, the “C5b-9 ELISA IC50” value was 2300 nM and the “Lysis IC50” value was 2200 nM. In the case of Ac-RSICV[Nal]QDWG[Nal]HRCT-NH2 (disulfide 4-14; not fully specified; printed as Ac-RSICV{Nal}QDWG{Nal}HRCT-NH2) [Peptide 4.8, Ac-RS-ICV{Nal}QDWG{Nal}HRCT-NH2], the “C3b ELISA IC50” value is reported as 4100 nM, the “C5b-9 ELISA IC50” value is reported as 2400 nM and the “Lysis IC50” value is reported as 2800 nM. With Ac-ERICV[Nal]QDWG[Nal]HRCT-NH2 (disulfide 4-14; not fully specified; printed as Ac-ERICV{Nal}QDWG{Nal}HRCT-NH2) [Peptide 4.5, Ac-ER-ICV{Nal}QDWG{Nal}HRCT-NH2] the “C3b ELISA IC50” value was 3800 nM, the “C5b-9 ELISA IC50” value was 2400 nM and the “Lysis IC50” value was 3000 nM. For Ac-NNLCVWQDWG[Nal]HRCT-NH2 (disulfide 4-14; not fully specified; printed as Ac-NN-LCVWQDWG{Nal}HRCT-NH2) [Peptide 4.2, Ac-NN-LCVWQDWG{Nal}HRCT-NH2], the “C3b ELISA IC50” value was 2900 nM, the “C5b-9 ELISA IC50” value was 1900 nM and the “Lysis IC50” value was 2100 nM. Ac-ERICVWQDWG[Nal]HRCT-NH2 (disulfide 4-14; not fully specified; printed as Ac-ER-ICVWQDWG{Nal}HRCT-NH2) [Peptide 4.1, Ac-ER-ICVWQDWG{Nal}HRCT-NH2] was tested, and the “C3b ELISA IC50” value was 3000 nM, the “C5b-9 ELISA IC50” value was 1800 nM and the “Lysis IC50” value was 2300 nM. For Ac-NRLCVWQDWG[Nal]HRCT-NH2 (disulfide 4-14; not fully specified; printed as Ac-NR-LCVWQDWG{Nal}HRCT-NH2) [Peptide 4.3, Ac-NR-LCVWQDWG{Nal}HRCT-NH2], the “C3b ELISA IC50” value was 2000 nM, the “C5b-9 ELISA IC50” value was 1200 nM and the “Lysis IC50” value was 1200 nM. In the case of Ac-NRLCV[Nal]QDWG[Nal]HRCT-NH2 (disulfide 4-14; not fully specified; printed as Ac-NRLCV{Nal}QDWG{Nal}HRCT-NH2) [Peptide 4.7, Ac-NR-LCV{Nal}QDWG{Nal}HRCT-NH2], the “C3b ELISA IC50” value is reported as 2300 nM, the “C5b-9 ELISA IC50” value is reported as 1400 nM and the “Lysis IC50” value is reported as 1300 nM. In the case of Ac-ICVWQDWG[Nal]HRCT-NH2 (disulfide 2-12; not fully specified; printed as Ac-ICVWQDWG{Nal}HRCT-NH2) [Peptide 2.2, Ac-ICVWQDWG{Nal}HRCT-NH2], the “C3b ELISA IC50” value is reported as 2400 nM, the “C5b-9 ELISA IC50” value is reported as 2000 nM and the “Lysis IC50” value is reported as 1400 nM. In the case of Ac-ICVWQDWG[Aal]HRCT-NH2 (disulfide 2-12; reading uncertain; also: printed as Ac-ICVWQDWG{Aal}HRCT-NH2) [Peptide 2.4, Ac-ICVWQDWG{Aal}HRCT-NH2], the “C3b ELISA IC50” value is reported as 900 nM, the “C5b-9 ELISA IC50” value is reported as 800 nM and the “Lysis IC50” value is reported as 700 nM. Ac-ICV[Trp(1-Me)]QDWG[Nal]HRCT-NH2 (disulfide 2-12; not fully specified; printed as Ac-ICV{meW}QDWG{Nal}HRCT-NH2) [Peptide 2.1, Ac-ICVmeWQDWG{Nal}HRCT-NH2] was tested, and the “C3b ELISA IC50” value was 1400 nM, the “C5b-9 ELISA IC50” value was 900 nM and the “Lysis IC50” value was 900 nM.

Reference: patent US20150329594A1 (University of California, published 2015)
